The results in this text go back to US20180044401A1.

The target of test [1] is IgG-Fab prepared from anti-TNFα monoclonal antibody (Remicade). In words: SPR Biacore, Fab immobilized at about 10000 RU, peptide at 25-200 nM, response 1 minute after addition.
For test [2], the target named is IgG-Fc of anti-TNFα monoclonal antibody (Remicade). In words: SPR Biacore, Fc immobilized at about 10000 RU, peptide at 25-200 nM, response 1 minute after addition.

“And” between values parts separate entries of the source, which are not always exact repeats. Identical values can stand only once.

B1: IgG-binding peptide of SEQ ID NO: 14 (designed binder)
chain: GPLGSTTYKLILNGKTLTGYTTAIADDAATAEKVLKQFANDNGIDGEWTYDDATKTFTVTE
Take B1: the inclination of approximate curve (binding response against peptide concentration) is 0.5 and 0.4 and 0.6 in test [1]; 0.5 and 0.4 and 0.6 in test [2].
